Data on 1 molecule can be found in patent US20260139017A1, “COMPOSITIONS AND METHODS USING REELIN IN ALZHEIMER'S DISEASE” (The General Hospital Corporation, priority 2022, published 2026).

One experiment deals with pTau S396. The experiment is described as follows: Intraperitoneal mini-RELN in MAPT P301S Tau Tg mice, pTau S396 immunofluorescence. Format: in vivo. Conditions: 6 months old female MAPT P301S mice, intraperitoneal days 1-4, hippocampal and entorhinal regions, vs PBS. The procedure:
The effects of systemic delivery of mini-RELN peptides was evaluated in vivo. 6 months old female MAPT P301S Tau Tg mice were injected intraperitoneally on day 1 with 500 μL and on day 2-4 with 250 μL solutions of either vehicle (PBS) or mini-RELN peptides. On Day 5, mice were euthanized with saturating concentration CO2 gas and intracardially perfused with 4% PFA. Brains were subsequently harvested and used for histological analyses.
Immunofluorescence staining of murine brains was performed as follows. 24 hours post fixation with 4% PFA at 4° C., sagittal brain sections were obtained at 1 mm thickness using a stainless-steel brain matrix. The entorhinal-hippocampal section of each brain was chosen for Clarity using Binaree® Tissue Clearing™ Kit (HRTC-012) following the kit guidelines. Sections were incubated with pTauS396 primary antibody for 72 h followed by secondary antibody: Alexa 647, and DAPI for 1 h. Subsequently, sections were imaged using confocal SP8 microscope for quantification. Fourteen images were taken at 63× magnification per group. Fluorescence intensity of pTau was quantified automatically using Matlab (2021a). Otsu's thresholding method was used to get a mask of the image signal and then the mean intensity of the signal was computed.

A further experiment concerns pDAB1. The experiment is described as follows: Trans-nasal (MIND) delivery of mini-RELN in mice, brain pDAB1 western blot. Format: in vivo. Conditions: WT male mice, 72 h post-trans-nasal delivery. An excerpt: We used a MIND procure (trans nasal delivery using Minimally Invasive Nasal Depot (MIND), Padmakumar et al., J Control Release. 2021 Mar. 10; 331: 176-186) or intraperitoneal injection to administer miniRELN constructs into mice. MIND leverages the olfactory nerve to bypass the blood brain barrier. […] Using the MIND methodology provides one method of reaching the entorhinal cortex with minimal systemic exposure. […] (Jackson Laboratory) were housed under regular light/night cycle. All procedures were conducted under approved IACUC animal protocols. Prior to incision, the nasal region was shaved and cleaned using betadine and 70% alcohol and mouse subcutaneously injected with buprenorphine HCl and meloxicam (5 mg/kg). The nasal cavity was then opened using a scalped and nasal mucosa exposed using a microdrill. Once the mucosa was exposed, gel dispersion of either PBS or mini-RELN constructs (Innovagen) in 20% Pluronic (Sigma Aldrich) was subcutaneously delivered in the surgically-generated pocket. Mice were injected with meloxicam for 3 days prior euthanasia at day 4 to collect the brain tissue used for post-mortem analysis.
Western blotting was performed as follows. 20 ug protein homogenates were prepared under reducing and denaturing conditions using Laemmli buffer enriched with 10 mM DTT and 5 min boiling. Samples were electrophoretically separated in a 4-20% Gel at 90V and protein transferred to a PVDF membrane using iBlot™ 2 Dry Blotting System. The membrane was blocked using Intercept® (TBS) Blocking Buffer for 2 hours. We detected pDAB1 (Tyr232; 1:1000, rabbit, #3325 Cell signaling), and Beta actin (1:5000, mouse, #66009-1-Ig, Proteintech). Antibodies were diluted using Intercept® (TBS) Blocking Buffer and incubated overnight at 4C under gentle shaking. Prior secondary antibody incubation, membranes were washes 2 times using TBS-T for 10 minutes. As secondary antibodies we used IR Dye 800n CW Goat-anti-Rabbit (925-32211, Licor) and IR Dye 680 CW Goat-anti-Mouse (925-68070, Licor) both diluted 1:10000 in blocking buffer for 1 h at room temperature under gentle shaking. Membranes were washed three times with TBS-T prior IR detection using Odyssey imager. To quantify the results, each band was quantified using ImageJ and data expressed as pDAB1:βActin ratio normalized to the control.
Background: A western blot detects proteins with antibodies after separation by electrophoresis.

Another experiment deals with pDAB1 (Tyr232). The experiment is described as follows: HRECs treated 5 minutes with recombinant mini-RELN, pDAB1 western blot. The format is cell-based, human. The gist of the method:
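Serum-starved (2 h) HRECs at passage 7 given recombinant mini-RELN constructs or mouse Reelin at 4 ug/mL for 5 min, then lysed. Western blot of 3.5 ug lysate for pDAB1 (Tyr232) with IR detection. Value is pDAB1:total protein band ratio normalized to control.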

B1: RAP-FcIgG-CTRH3447R (protein)
chain: MYRMQLLSCIALSLALVTNSMAPRRVRSFLRGLPALLLLLLFLGPWPAASHGGKYSREKNQPKPSPKRESGEEFRMEKLNQLWEKAQRLHLPPVRLAELHADLKIQERDELAWKKLKLDGLDEDGEKEARLIRNLNVILAKYGLDGKKDARQVTSNSLSGTQEDGLDDPRLEKLWHKAKTSGKFSGEELDKLWREFLHHKEKVHEYNVLLETLSRTEEIHENVISPSDLSDIKGSVLHSRHTELKEKLRSINQGLDRLRRVSHQGYSTEAEFEEPRVIDLWDLAQSANLTDKELEAFREELKHFEAKIEKHNHYQKQLEIAHEKLRHAESVGDGERVSRSREKHALLEGRTKELGYTVKKHLQDLSGRISRARHNELTGGSGGNSAPLERKSSVECPPCPAPPVAGPSVFLFPPKPKDTLMISRTPEVTCVVVDVSHEDPEVQFNWYVDGVEVHNAKTKPREEQFNSTFRVVSVLTVVHQDWLNGKEYKCKVSNKGLPAPIEKTISKTKGQPREPQVYTLPPSREEMTKNQVSLTCLVKGFYPSDIAVEWESNGQPENNYKTTPPMLDSDGSFFLYSKLTVDKSRWQQGNVFSCSVMHEALHNHYTQKSLSLSPGARTGGGGSGGGGSSTRKQNYMMNFSRQHGLRRFYNRRRRSLRRYP
Consider B1, for which, in the experiment on pTau S396, the “pTau S396 fluorescence intensity” value is on record as “decreased levels of pTau S396 signaling”. Further, in the experiment with pDAB1, the “pDAB1 levels in the hippocampus” value was “increased” and the “pDAB1 levels in the midbrain” value is on record as “increased”. The “efficacy at RELN signaling (pDAB1) relative to comparators” value with pDAB1 (Tyr232) (5 minutes treatment) is on record as “more effective than controls”. The pDAB1 levels result with pDAB1 (Tyr232) (5 minutes, 4 ug/mL recombinant protein) was “increased pDAB1 levels”.
